# Experimental data published in PMC12817929.
# Molecular target: HEV-ORF2 mutant lacking all three KFERQ-like motifs (ORF2ΔCMA) (hepatitis E virus genotype 3 (HEV-3), KernowC1-p6 strain)
# Test: co-IP; HEK-293T transfected with plasmids for HSC70 and GRP75 together with WT ORF2 or ORF2ΔCMA for 48 h, NP-40 lysis, IP with Mab-2G8, blots for HSC70 and GRP75
substance,measurement,value
GRP75 expressed from plasmid in HEK-293T cells together with HSC70 and ORF2 (tag not stated) (from UniProt P38646 47-679) (natural protein),decrease of co-precipitated GRP75 against wild-type ORF2,50%
